Laboratory results as given in US20100120685A1 (WASHINGTON UNIVERSITY, published 2010).
One block for each binder: values may come before it. No end group written: not given here.

Assays:
[1] = target: T1, HA-tagged LRP6 on LRP6-transduced HT1080 cells (UniProt O75581 20-1613, limits assumed); experiment: conditioned medium on LRP6-transduced HT1080 cells, anti-Myc immunofluorescence
T1 construct: whole, on cells; the only LRP6 cDNA named in the materials is human; also called mature LRP6 at the cell surface; cell surface LRP6; not shown: HA tag
T1 sequence (O75581 20-1613 limits assumed): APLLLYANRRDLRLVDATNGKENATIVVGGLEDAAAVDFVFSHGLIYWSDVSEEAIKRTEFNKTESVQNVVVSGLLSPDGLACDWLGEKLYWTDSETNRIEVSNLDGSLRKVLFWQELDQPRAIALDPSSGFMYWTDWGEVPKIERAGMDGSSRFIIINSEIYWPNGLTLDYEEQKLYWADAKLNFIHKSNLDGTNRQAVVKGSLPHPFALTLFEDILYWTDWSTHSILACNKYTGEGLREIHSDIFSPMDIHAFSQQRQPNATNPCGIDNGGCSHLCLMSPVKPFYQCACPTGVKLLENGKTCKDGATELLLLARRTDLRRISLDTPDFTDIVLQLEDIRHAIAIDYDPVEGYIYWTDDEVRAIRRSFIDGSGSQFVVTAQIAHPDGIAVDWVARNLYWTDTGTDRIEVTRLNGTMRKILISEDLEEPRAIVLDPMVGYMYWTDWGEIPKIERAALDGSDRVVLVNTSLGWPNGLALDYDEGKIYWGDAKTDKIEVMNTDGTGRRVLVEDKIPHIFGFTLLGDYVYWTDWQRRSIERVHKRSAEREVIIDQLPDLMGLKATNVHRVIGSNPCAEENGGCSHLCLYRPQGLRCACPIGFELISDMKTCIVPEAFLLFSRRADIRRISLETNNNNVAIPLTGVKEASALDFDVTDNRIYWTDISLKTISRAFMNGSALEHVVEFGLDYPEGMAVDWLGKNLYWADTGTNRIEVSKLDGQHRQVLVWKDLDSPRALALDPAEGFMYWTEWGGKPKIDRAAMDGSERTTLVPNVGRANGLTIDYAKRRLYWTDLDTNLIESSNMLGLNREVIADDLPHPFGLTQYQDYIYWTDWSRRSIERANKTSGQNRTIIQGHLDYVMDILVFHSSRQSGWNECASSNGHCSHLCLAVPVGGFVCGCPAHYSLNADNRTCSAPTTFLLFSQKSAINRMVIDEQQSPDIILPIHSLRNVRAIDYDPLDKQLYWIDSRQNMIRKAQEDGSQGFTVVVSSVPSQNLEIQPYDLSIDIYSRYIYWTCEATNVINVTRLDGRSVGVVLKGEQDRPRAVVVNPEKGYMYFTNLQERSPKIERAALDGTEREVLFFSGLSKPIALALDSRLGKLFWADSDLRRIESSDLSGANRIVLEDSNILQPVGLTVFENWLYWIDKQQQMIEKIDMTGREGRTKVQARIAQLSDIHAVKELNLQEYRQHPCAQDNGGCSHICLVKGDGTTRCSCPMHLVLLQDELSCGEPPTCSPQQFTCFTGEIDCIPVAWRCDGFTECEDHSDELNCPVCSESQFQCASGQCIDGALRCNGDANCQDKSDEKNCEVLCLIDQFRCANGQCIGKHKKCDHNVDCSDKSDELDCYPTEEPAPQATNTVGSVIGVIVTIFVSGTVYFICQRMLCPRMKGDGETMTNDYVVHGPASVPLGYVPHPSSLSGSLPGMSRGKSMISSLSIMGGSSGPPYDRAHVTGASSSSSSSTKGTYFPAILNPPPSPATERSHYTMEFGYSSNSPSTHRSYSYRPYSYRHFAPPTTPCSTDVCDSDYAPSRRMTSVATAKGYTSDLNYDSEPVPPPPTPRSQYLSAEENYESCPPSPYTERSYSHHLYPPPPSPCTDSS
Procedure: To facilitate immunodetection, a c-Myc epitope was included at the C-terminus. The integrity of the subcloned DNA sequence was confirmed by DNA sequencing. Human DKK1-conditioned media were produced by transient transfection of HEK293 cells with pcDNADKK1-Myc in serum-free medium, and allowed to bind to LRP6-transduced HT1080 cells and control cells at room temperature for 60 minutes in the absence or presence of 1 μM Mesd. Cells were then fixed in 4% paraformaldehyde, labeled with anti-Myc monoclonal antibody and detected with Alexa-488 goat anti-mouse IgG. The immunofluorescence was detected by a laser-scanning confocal microscope (Olympus Fluoview 500).
RAP is a receptor antagonist for members of the LDLR family, and is able to inhibit the binding of most known ligands of the LDLR family members. DKK1 is an LRP6-specific ligand and antagonist. […] In these experiments, Serum-free conditioned medium was harvested from HEK293 cells transiently transfected with cDNA for human Myc-DKK1 and allowed to bind to LRP6-transduced HT1080 cells (B,C) and control cells (A) in the absence (A,B) or presence (C) of 1 μM Mesd. Cell-surface-bound Myc-tagged DKK proteins were fixed and detected by immunofluorescence staining with anti-Myc antibody. (D) DKK1 binding to cell surface LRP6 is inhibited by Mesd. […] (E) LRP6-mediated DKK1 degradation is inhibited by Mesd. […]

[2] = target: T1, HA-tagged LRP6 on LRP6-transduced …; experiment: 125I-DKK1 (5 nM) binding to LRP6-transduced HT1080 cells, 3 h at 4 C
Procedure: RAP is a receptor antagonist for members of the LDLR family, and is able to inhibit the binding of most known ligands of the LDLR family members. DKK1 is an LRP6-specific ligand and antagonist. […] In these experiments, Serum-free conditioned medium was harvested from HEK293 cells transiently transfected with cDNA for human Myc-DKK1 and allowed to bind to LRP6-transduced HT1080 cells (B,C) and control cells (A) in the absence (A,B) or presence (C) of 1 μM Mesd. Cell-surface-bound Myc-tagged DKK proteins were fixed and detected by immunofluorescence staining with anti-Myc antibody. (D) DKK1 binding to cell surface LRP6 is inhibited by Mesd. […] (E) LRP6-mediated DKK1 degradation is inhibited by Mesd. LRP6-mediated […] (5 nM) degradation was carried out for 4 hours at 37° C. in the absence or presence of 500 nM RAP or 500 nM Mesd. Values are the means of triple determinations with the s.d. indicated by error bars. Bar, 10 μm. As expected, Myc-tagged DKK1 binds to LRP6 cells (FIG. 9B) but not to the control cells (FIG. 9A).

[3] = target: T1, HA-tagged LRP6 on LRP6-transduced …; experiment: binding of truncated Mesd mutant to cell surface LRP6
[4] = target: LRP5 (as used in Example 11) (UniProt O75197 32-1615, limits assumed); experiment: competition with 125I-Mesd for LRP5
Chain of LRP5 (as used in Example 11) (O75197 32-1615 limits assumed): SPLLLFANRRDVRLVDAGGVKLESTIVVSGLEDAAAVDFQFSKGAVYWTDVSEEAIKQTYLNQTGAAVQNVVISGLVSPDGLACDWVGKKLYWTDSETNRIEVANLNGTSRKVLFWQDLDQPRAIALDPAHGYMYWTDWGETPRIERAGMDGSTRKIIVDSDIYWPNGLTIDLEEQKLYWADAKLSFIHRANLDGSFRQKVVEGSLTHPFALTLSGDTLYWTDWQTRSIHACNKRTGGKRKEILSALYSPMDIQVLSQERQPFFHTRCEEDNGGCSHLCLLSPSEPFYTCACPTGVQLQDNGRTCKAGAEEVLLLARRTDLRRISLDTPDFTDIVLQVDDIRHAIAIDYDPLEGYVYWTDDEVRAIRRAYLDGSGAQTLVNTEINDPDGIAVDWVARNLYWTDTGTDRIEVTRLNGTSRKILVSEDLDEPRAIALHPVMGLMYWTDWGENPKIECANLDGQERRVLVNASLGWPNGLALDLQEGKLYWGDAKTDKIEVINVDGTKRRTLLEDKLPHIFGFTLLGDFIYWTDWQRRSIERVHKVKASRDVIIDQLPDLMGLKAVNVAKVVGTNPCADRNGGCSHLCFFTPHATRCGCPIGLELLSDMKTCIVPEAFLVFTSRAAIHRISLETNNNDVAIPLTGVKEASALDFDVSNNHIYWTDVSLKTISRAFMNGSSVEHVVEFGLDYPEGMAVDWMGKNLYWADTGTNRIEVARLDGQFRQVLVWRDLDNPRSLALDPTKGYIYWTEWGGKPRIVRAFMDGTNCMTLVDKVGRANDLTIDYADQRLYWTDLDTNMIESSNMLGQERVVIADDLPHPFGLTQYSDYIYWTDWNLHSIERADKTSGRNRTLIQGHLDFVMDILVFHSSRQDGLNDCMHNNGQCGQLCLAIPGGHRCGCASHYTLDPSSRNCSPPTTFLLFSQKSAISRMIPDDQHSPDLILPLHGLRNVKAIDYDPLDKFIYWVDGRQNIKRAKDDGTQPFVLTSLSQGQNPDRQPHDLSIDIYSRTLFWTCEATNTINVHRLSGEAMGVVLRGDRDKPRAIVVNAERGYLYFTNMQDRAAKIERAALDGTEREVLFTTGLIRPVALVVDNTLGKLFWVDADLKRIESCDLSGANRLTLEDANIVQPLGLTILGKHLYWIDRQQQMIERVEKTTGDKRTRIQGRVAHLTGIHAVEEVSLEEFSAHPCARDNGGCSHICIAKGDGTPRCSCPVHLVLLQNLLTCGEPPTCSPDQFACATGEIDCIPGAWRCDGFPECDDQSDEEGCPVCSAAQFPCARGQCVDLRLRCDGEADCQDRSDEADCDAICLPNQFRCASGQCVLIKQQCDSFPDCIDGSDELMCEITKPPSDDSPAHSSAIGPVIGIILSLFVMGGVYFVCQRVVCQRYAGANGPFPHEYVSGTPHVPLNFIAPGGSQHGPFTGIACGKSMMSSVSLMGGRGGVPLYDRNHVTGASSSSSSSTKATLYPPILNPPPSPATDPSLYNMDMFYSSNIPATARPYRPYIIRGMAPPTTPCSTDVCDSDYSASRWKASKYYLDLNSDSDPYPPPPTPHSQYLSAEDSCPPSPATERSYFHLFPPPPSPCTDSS

[5] = target: LRP6 (as used in Example 11) (UniProt O75581 20-1613, limits assumed); experiment: competition with 125I-DKK1 for LRP6
Chain of LRP6 (as used in Example 11) (O75581 20-1613 limits assumed): as the sequence (O75581 20-1613 limits assumed) above

[6] = target: T1, HA-tagged LRP6 on LRP6-transduced …; experiment: 125I-Mesd (150-195) (5 nM) binding to LRP6-transduced HT1080 cells, 3 h at 4 C
Procedure: In this example, a truncated Mesd mutant containing the last 45 amino acids of C-terminal region was generated (FIG. 3A) and its binding affinity for LRP6 was then analyzed. […] (A) Binding analyses of ¹²⁵I-Mesd and its mutant Mesd (150-195) (5 nM) to LRP6-transduced HT1080 cells and control cells. (B) Binding analyses of ¹²⁵I-Mesd and its mutant Mesd (150-195) (5 nM) to LRP6-transduced HT1080 cells. Assays were carried out for 3 hours at 4° C. in the absence or presence of 500 nM Mesd or its mutant. Values are the means of triple determinations with the s.d. indicated by error bars.

[7] = target: T1, HA-tagged LRP6 on LRP6-transduced …; experiment: 125I-Mesd saturation binding to LRP6-transduced HT1080 cells, 3 h at 4 C, Scatchard analysis
Procedure: To examine whether Mesd binds with high affinity to most members of the LDLR family at the cell surface, we performed cell surface ligand binding experiments with cells stably transduced with LRP6 cDNA. Human HT1080 cells, which express undetectable levels of LRP6, were transduced with a viral vector alone (pLNCX2) or with vector containing LRP6 cDNA (Li, Y., Oncogene 23: 9129-9135, 2004) and used for ¹²⁵I-Mesd binding (FIG. 1A). ¹²⁵I-Mesd (5 nM) reached maximal binding after 2 hours incubation at 4° C. with LRP6-expressing HT1080 cells (FIG. 1A). Inclusion of excess unlabeled Mesd (500 nM) completely eliminated this binding.
(A) Time course of ¹²⁵I-Mesd (5 nM) binding to LRP6-transduced HT1080 cells and the control cells. Assay was carried out for the indicated periods at 4° C. in the absence (total) or presence of 500 nM Mesd (non-specific). (B) Saturation binding of ¹²⁵I-Mesd to LRP6-transduced HT1080 cells and the control cells. Assay was carried out at indicated concentrations for 3 hours at 4° C. in the absence (total) or presence (non-specific) of 500 nM Mesd. (C) Scatchard plots of data in B. All values are the average of triple determinations with the s.d. indicated by error bars.

- binding result [1]: binds
B1: human Myc-tagged DKK1 (conditioned medium of HEK293 cells) (ligand, UniProt O94907 32-266, looked up, not shown: small tags and cut ends)
chain: TLNSVLNSNAIKNLPPPLGGAAGHPGSAVSAAPGILYPGGNKYQTIDNYQPYPCAEDEECGTDEYCASPTRGGDAGVQICLACRKRRKRCMRHAMCCPGNYCKNGICVSSDQNHFRGEIEETITESFGNDHSTLDGYSRRTTLSSKMYHTKGQEGSVCLRSSDCASGLCCARHFWSKICKPVLKEGQVCTKHRRKGSHGLEIFQRCYCGEGLSCRIQKDHHQASNSSRLHTCQRH
notes: also called Myc-DKK1; DKK1-Myc

- binding result [2]: binds
B2: human recombinant DKK1 protein (ligand, UniProt O94907 32-266, looked up)
chain: B1 chain
modifications: 125I-labelled (IODO-GEN method)
notes: Bought

- binding result [3]: no binding
B3: Mesd (12-155) (other)
chain: RKKKDIRDYNDADMARLLEQWEKDDDIEEGDLPEHKRPSAPIDFSKLDPGKPESILKMTKKGKTLMMFVTVSGNPTEKETEEITSLWQGSLFNANYDVQRFIVGSDRAIFMLRDGSYAWEIKDFLVSQDRCAEVTLEGQMYPGK
notes: also called truncated Mesd mutant lacking both the N-terminal and C-terminal regions; not shown: N-terminal polyhistidine tail from pET-30a(+)

- fold reduction of 125I-Mesd binding [4]: ~10 fold
- fold reduction of 125I-DKK1 binding [5]: > 2 fold
Binder: KGGGSKEKNKTKPEKAKKKEGDPKPRASKEDNRAGSR (also called the oligopeptide) [Mesd oligopeptide KGGGSKEKNKTKPEKAKKKEGDPKPRASKEDNRAGSR]

- binding result [6]: binds
B4: Mesd (150-195) (peptide)
chain: QMYPGKGGGSKEKNKTKPEKAKKKEGDPKPRASKEDNRAGSRREDL
modifications: also: 125I-labelled where used as tracer
notes: also called truncated Mesd mutant containing the last 45 amino acids of C-terminal region; Mesd (150-195) peptide; not shown: N-terminal polyhistidine tail from pET-30a(+) if made like the other recombinant Mesd mutants

- binding result [3]: binds
B5: Mesd (12-195) (other)
chain: RKKKDIRDYNDADMARLLEQWEKDDDIEEGDLPEHKRPSAPIDFSKLDPGKPESILKMTKKGKTLMMFVTVSGNPTEKETEEITSLWQGSLFNANYDVQRFIVGSDRAIFMLRDGSYAWEIKDFLVSQDRCAEVTLEGQMYPGKGGGSKEKNKTKPEKAKKKEGDRKPRASKEDNRAGSRREDL
notes: also called truncated Mesd mutant lacking the N-terminal region; not shown: N-terminal polyhistidine tail from pET-30a(+)

- fold reduction of 125I-Mesd binding [4]: ~10 fold
- fold reduction of 125I-DKK1 binding [5]: > 2 fold
- Kd [7]: ~3.3 nM
B6: recombinant mouse Mesd protein (wild type) (other, not shown: small tags and cut ends)
chain: ADTPGEATPPPRKKKDIRDYNDADMARLLEQWEKDDDIEEGDLPEHKRPSAPIDFSKLDPGKPESILKMTKKGKTLMMFVTVSGNPTEKETEEITSLWQGSLFNANYDVQRFIVGSDRAIFMLRDGSYAWEIKDFLVSQDRCAEVTLEGQMYPGKGGGSKEKNKTKPEKAKKKEGDRKPRASKEDNRAGSRREDL
modifications: 125I-labelled (IODO-GEN method) where used as tracer
notes: Expressed in E. coli BL21(DE3) from pET-30a(+); 'All the recombinant Mesd proteins lack the Mesd signal peptide'; also called Mesd polypeptide
